Experimental findings from patent publication US20250263466A1 (VIR BIOTECHNOLOGY, published 2025) are described below.

Assay [1] concerns the target T1, MERS-CoV S protein (London1/2012) expressed on ExpiCHO cells (MERS-CoV, UniProt K9N5Q8 18-1353).
T1 sequence: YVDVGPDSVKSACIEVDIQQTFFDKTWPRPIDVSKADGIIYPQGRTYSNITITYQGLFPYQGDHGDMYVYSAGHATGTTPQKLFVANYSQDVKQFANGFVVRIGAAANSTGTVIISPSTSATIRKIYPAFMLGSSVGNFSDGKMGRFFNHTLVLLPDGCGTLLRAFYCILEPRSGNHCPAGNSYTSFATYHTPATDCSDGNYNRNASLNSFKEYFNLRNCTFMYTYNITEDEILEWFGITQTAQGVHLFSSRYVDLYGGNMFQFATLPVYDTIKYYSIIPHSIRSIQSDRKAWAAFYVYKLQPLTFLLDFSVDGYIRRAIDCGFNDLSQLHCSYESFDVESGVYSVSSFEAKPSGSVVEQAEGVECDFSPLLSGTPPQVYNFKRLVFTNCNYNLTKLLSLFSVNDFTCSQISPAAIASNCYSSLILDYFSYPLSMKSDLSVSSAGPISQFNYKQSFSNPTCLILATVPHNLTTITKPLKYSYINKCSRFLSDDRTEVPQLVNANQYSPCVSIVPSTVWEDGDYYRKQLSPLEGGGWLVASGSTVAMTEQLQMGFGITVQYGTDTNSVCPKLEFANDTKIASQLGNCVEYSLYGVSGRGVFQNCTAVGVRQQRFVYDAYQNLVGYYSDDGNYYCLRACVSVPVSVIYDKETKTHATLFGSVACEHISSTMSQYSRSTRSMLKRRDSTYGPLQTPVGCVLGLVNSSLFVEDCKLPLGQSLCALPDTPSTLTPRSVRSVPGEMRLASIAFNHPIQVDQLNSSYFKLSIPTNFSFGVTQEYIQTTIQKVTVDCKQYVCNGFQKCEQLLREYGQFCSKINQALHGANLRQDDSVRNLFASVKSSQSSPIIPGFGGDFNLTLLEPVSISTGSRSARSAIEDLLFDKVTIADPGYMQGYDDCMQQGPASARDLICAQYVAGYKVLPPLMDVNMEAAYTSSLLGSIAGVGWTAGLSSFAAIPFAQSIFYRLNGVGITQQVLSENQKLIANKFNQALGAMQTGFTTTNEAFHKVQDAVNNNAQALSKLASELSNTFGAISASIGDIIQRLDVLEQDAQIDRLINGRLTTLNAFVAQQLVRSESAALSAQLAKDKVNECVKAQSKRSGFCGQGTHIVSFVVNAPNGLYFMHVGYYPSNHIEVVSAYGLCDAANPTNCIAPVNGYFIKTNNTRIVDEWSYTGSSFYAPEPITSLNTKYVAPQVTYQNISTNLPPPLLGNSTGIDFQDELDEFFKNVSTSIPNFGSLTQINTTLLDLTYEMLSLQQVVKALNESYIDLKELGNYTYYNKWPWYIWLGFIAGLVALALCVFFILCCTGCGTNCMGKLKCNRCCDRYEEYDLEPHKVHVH
Nature of the assay: flow cytometry on ExpiCHO cells transfected with MERS-CoV S.

Assay [2] addresses SARS-CoV S protein (Urbani strain) expressed on ExpiCHO cells (SARS-CoV, UniProt P59594 14-1255). Nature of the assay: flow cytometry on ExpiCHO cells transfected with SARS-CoV S.
Assay [3] has as its target SARS-CoV Spike S1 Subunit Protein (strain WH20) (SARS-CoV, UniProt P59594 14-667). Nature of the assay: Octet (BLI): inhibition of SARS-CoV S1 binding to immobilized hACE2.

B1: nCoV-19 mAb (antibody, V domains shown)
VH: QVKLVESGGGVVQPGRSLRLSCAASGFTFSSNAMHWVRQTPGKGLEWVALISYDERNKYYAESVKGRFTISRDNSKNTLYLQMNSLRHEDTAVYYCARDLQMRVVVVSNFDYWGQGTLVTVSS
VL: DVVMTQSPLSLPVTLGQPASISCRSSQSLVYSDGNTYLNWFQQRPGQSPRRLIYEVSNWDSGVPDRFSGSGSGTDFTLKISRVEAEDVGVYYCMQATHWPPTFGQGTKLEIK
Consider B1, for which the binding result in assay [1] was “no binding (tested: 10 µg/ml)”; in assay [2] it was “binds”.

B2: nCoV-1 mAb (antibody, V domains shown)
VH: QAQLVESGGALVQPGRSLRLSCAASGFTFRNYAMHWVRQAPATGLQWLAVITSDGRNKFYADSVKGRFTISREDSKNTLYLQMDSLRGEDTAVYYCVTQRDNSRDYFPHYFHDMDVWGQGTTVAVSS
VL: DVVLTQSPLSLPVTLGQPASISCRSSQSLVYSDGDTYLNWFQQRPGQSPRRLIYQVSNRDSGVPDRFSGSGSGTDFTLKISRVEAEDVGVYYCMQGSHWPPTFGQGTKVEIK
B2 displayed an IC50 in assay [3] of 1.13 µg/mL. In assay [1], the binding result was “no binding (tested: 10 µg/ml)”.

B3: nCoV-18 mAb (antibody, V domains shown)
VH: QVQLVQSGAEVRQPGTSVKVSCKASGYTFMNNDITWVRQAPGQVLQWMGWIRPSNGNTNYAQKFQGRVTLTTDTSTNTAHMELRSLKSDDTAVYYCARQSHSTRGGWHFSPWGQGTLVTVSS
VL: DIQMTQSPSSLSASVGDRVTITCRPSQPISYFLNWYQQTPGKAPKLLIYAASSLQSGVPSRFSGSGSGTDFTLTISSLQPEDSATYYCQQSYSVPYTFGQGTKLEIK
As for B3, the binding result in assay [1] is reported as “no binding (tested: 10 µg/ml)”; in assay [2], “binds”.

B4: nCoV-10 mAb (antibody, V domains shown)
VH: QVQLVESGGGVVQPGRSLRLSCAASGFTFSNYGMHWVRQAPGKGLEWLAVISSDGRIKFYADSVKGRFTMSRDSSKNTLYLQMNSLRAEDTAVYYCAKDRFQFARSWYGDYFDYWGQGTQVTVSS
VL: AVAMTQSPLSLPVTLGQPASISCRSNQSLVYSDGNIYLNWFQQRPGQSPMRLIYRVSNRDSGVPDRFSGSGSGTDFTLKISRVEAEDVGIYYCMQGTHWPPTFGGGTKVEIK
In assay [3], B4 came in with an IC50 of 2.69 µg/mL. Moreover, the binding result in assay [1] was “no binding (tested: 10 µg/ml)”.

B5: nCoV-20 mAb (antibody, V domains shown)
VH: QVTLRESGPALVKPTQTLTLTCTFSGFSLTTTEMCVGWIRQPPGKALEWLALIDWDDDKYYSTSLRTRLTISKDTSKNQVVLTMTNMDPVDTATYYCARMFGRKRLAPTGFDPWGQGTLVTVSS
VL: DIVMTQSPLSLPVTPGEPASISCRSSQSLLHSNGKNYLDWYLQKPGQSPQLLICLGSYRASGVPDRFSGSGSGTDFTLKISRVEAEDVGVYYCMQALQTPWTFGQGTKVEIK
On to B5, for which the binding result in assay [1] is “no binding (tested: 10 µg/ml)”; in assay [2], “binds”.
